Drawing on patent publication US20260234261A1 (published 2026), this text covers EC50 for nine molecules.

Holding throughout (assay): FACS binding
Assay [1] has as its target T1, human CTLA4 and human CCR8 co-expressed on CHOS-hCTLA4/hCCR8 double-positive cells (human, UniProt P16410 36-223; P51685 1-355).
Assay [2] has as its target T1, human CTLA4 and human CCR8 co-expressed …. The source holds these as a separate data set.
Assay [3] has as its target T2, human CTLA4 (overexpressed on CHOS-hCTLA4 cells) (human, UniProt P16410 36-223).
For assay [4], the target named is T3, human CCR8 (overexpressed on CHOS-hCCR8 cells) (human, UniProt P51685 1-355).
For assay [5], the target named is T1, human CTLA4 and human CCR8 co-expressed …. The source holds these as a separate data set.
The target of assay [6] is T2, human CTLA4 (overexpressed on …). The source holds these as a separate data set.
For assay [7], the target named is T1, human CTLA4 and human CCR8 co-expressed …. This is another data set of the same source.
Assay [8] addresses T2, human CTLA4 (overexpressed on …). This is another data set of the same source.
For assay [9], the target named is T3, human CCR8 (overexpressed on CHOS-hCCR8 …). The source holds these as a separate data set.
The target is the same in assay [10]. The source holds these as a separate data set.
For assay [11] the target is unchanged. The source holds these as a separate data set.

Read-outs that look alike come from different tables or passages of the source.

As a reminder, the EC50 is the concentration that produces a half-maximal response. A higher EC50 goes with lower potency in that assay.

T3 sequence (P51685 whole entry): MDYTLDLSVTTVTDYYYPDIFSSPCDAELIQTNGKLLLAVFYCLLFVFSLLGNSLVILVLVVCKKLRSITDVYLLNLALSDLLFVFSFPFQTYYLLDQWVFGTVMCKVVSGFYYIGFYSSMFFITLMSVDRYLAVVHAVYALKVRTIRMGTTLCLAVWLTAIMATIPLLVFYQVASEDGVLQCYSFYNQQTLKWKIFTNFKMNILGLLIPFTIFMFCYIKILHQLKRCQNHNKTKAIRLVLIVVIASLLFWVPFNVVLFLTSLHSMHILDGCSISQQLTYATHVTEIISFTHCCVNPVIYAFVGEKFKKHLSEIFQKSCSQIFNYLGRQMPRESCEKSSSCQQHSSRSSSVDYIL
T2 sequence (P16410 36-223): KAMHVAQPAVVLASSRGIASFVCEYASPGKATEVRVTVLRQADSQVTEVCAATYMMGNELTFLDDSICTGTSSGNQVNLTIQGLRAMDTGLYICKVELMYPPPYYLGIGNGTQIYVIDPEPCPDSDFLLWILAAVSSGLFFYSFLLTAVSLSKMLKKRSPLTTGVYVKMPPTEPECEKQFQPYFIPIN
T1 sequence (P16410 36-223, chain 1 of 2): as the sequence (P16410 36-223) above
T1 sequence (P51685 whole entry, chain 2 of 2): as the sequence (P51685 whole entry) above

B1: Anti-CTLA4(ip-0508) (antibody, V domains shown)
VH: EVQLVESGGGVVQPGRSLRLSCAASGFTFSSYTMHWVRQAPGKGLEWVTFISEDGNNKYYADSVKGRFTISRDNSKNTLYLQMNSLRAEDTAIYYCARTGWLGPEDYWGQGTLVTVSS
VL: not shown
Regarding B1, it took 361 nM to reach a half-maximal effect in assay [1] (EC50).

B2: Anti-CTLA4(ip-05)-1 Afu (antibody, V domains shown)
VH: EVQLVESGGGVVQPGRSLRLSCAASGFTFSSYTMHWVRQAPGKGLEWVTFISEDGNNKYYADSVKGRFTISRDNSKNTLYLQMNSLRAEDTAIYYCARTGWLGPFDYWGQGTLVTVSS
VL: not shown
As for B2, the EC50 in assay [2] was 98.2 nM; in assay [3] it was 3.98 nM; in [4], 51.7 nM.

B3: Anti-CTLA4(ip-05)-1 (antibody, V domains shown)
VH: EVQLVESGGGVVQPGRSLRLSCAASGFTFSSYTMHWVRQAPGKGLEWVTFISEDGNNKYYADSVKGRFTISRDNSKNTLYLQMNSLRAEDTAIYYCARTGWLGPFDYWGQGTLVTVSS
VL: not shown
Turning to B3, the EC50 in assay [5] is 11.8 nM; in assay [6], 3.6 nM.

B4: Anti-CTLA4(ip-05)×CCR8-6 (bispecific antibody)
heavy 1: not shown
light 1: not shown
heavy 2: not shown
light 2: EIVLTQSPATLSLSPGERATLSCRASQSVSSYLAWYQQKPGQAPRLLIYDASNRATGIPARFSGSGSGTDFTLTISSLEPEDFAVYYCQQYSAWPLTFGGGTKVEIKRTVAAPSVFIFPPSDEELKSGTASVQCLLNNFYPREAKVQWKVDNALQSGNSQESVTEQDSKDSTYSLSSELTLSKADYEKHKVYACEVTHQGLSSPVTKSFNRGEC
As to B4, the values for the EC50 in [7], in [8] and in assay [9] were 11.3 nM, 28.2 nM and 6.55 nM, respectively.

B5: Anti-CTLA4(ip-05)×CCR8-4 (bispecific antibody)
heavy 1: not shown
light 1: not shown
heavy 2: not shown
light 2: EIVLTQSPATLSLSPGERATLSCRASQSVSSYLAWYQQKPGQAPRLLIYDASNRATGIPARFSGSGSGTDFTLTISSLEPEDFAVYYCQQYSAWPLTFGGGTKVEIKRTVAAPSVFIFPPSDEQLKSGRASVVCLLNNFYPREAKVQWKVDNALQSGNSQESVTEQDSKDSTYSLSSRLQLSKADYEKHKVYACEVTHQGLSSPVTKSFNRGEC
Regarding B5, the EC50 in assay [7] amounted to 20.8 nM; in assay [8] it was 77.4 nM; in assay [9], 43.9 nM.

B6: Anti-CCR8(ADI68741-R2-21-DA)-Afu (antibody, V domains shown)
VH: EVQLVQSGAEVKKPGASVKVSCKASGYTFTSYYMHWVRQAPGQGLEWMGIINPMTGSASHAQKFQGRVTMTRDTSTSTVYMELSSLRSEDTAVYYCVRDAAARHKYFAFWGRGTLVTVSS
VL: EIVLTQSPATLSLSPGERATLSCRASQSVSSYLAWYQQKPGQAPRLLIYDASNRATGIPARFSGSGSGTDFTLTISSLEPEDFAVYYCQQYSAWPLTFGGGTKVEIKR
B6 displayed an EC50 in assay [2] of 22.2 nM.

B7: Anti-CCR8(ADI68741)-1 Afu (antibody, V domains shown)
VH: EVQLVQSGAEVKKPGASVKVSCKASGYTFTSYYMHWVRQAPGQGLEWMGIINPGTGSTSHAQKFQGRVTMTRDTSTSTVYMELSSLRSEDTAVYYCARDGAFRHKYFDLWGRGTLVTVSS
VL: EIVLTQSPATLSLSPGERATLSCRASQSVSSYLAWYQQKPGQAPRLLIYDASNRATGIPARFSGSGSGTDFTLTISSLEPEDFAVYYCQQYSAWPLTFGGGTKVEIKR
In turn, B7 had an EC50 in assay [2] of 0.595 nM. Compared with the last molecule, the EC50 is about 37-fold lower.

B8: Anti-CCR8(ADI68741)-1 (antibody, V domains shown)
VH: EVQLVQSGAEVKKPGASVKVSCKASGYTFTSYYMHWVRQAPGQGLEWMGIINPGTGSTSHAQKFQGRVTMTRDTSTSTVYMELSSLRSEDTAVYYCARDGAFRHKYFDLWGRGTLVTVSS
VL: EIVLTQSPATLSLSPGERATLSCRASQSVSSYLAWYQQKPGQAPRLLIYDASNRATGIPARFSGSGSGTDFTLTISSLEPEDFAVYYCQQYSAWPLTFGGGTKVEIKR
B8: the EC50 was 0.194 nM in [1], 0.215 nM in [10], 0.351 nM in assay [5] and 0.743 nM in assay [11].

B9: ONC-392 Analog (antibody, V domains shown)
VH: QVQLQESGPGLVKPSETLSLTCTVSGFSLTSYGLSWIRQPPGKGLEWIGYIWYDGNTNFHSPLKSRVTISVDTSKNQFSLKLSSVTAADTAVYYCAKTEGHYYGSNYGYYALDYWGQGTLVTVSS
VL: DIQMTQSPSSLSASVGDRVTITCRASENIYSNLAWYQQKQGKAPKLLLYAATNLQDGVPSRFSGSGSGTDYTLTISSLQPEDFATYFCQHLWGTPYTFGQGTKLEIKR
As to B9, the EC50 in [2] worked out at 0.623 nM; in assay [3], 0.521 nM.
